What was measured:
[1] = biological target: T1, trimeric murine IL-2 receptor (IL-2Rα, IL-2Rβ, and IL-2Rγ) on CTLL-2 cells (murine, UniProt P01590 22-268; P16297 27-539; P34902 23-369); assay: cell-based or functional assay
T1 sequence (looked up) 1: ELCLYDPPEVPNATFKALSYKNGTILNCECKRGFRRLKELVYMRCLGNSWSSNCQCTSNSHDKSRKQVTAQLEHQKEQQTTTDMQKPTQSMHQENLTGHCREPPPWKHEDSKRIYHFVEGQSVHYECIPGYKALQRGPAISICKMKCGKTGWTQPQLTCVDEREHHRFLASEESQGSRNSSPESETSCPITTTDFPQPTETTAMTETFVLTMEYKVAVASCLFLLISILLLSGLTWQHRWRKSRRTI
T1 sequence (looked up) 2: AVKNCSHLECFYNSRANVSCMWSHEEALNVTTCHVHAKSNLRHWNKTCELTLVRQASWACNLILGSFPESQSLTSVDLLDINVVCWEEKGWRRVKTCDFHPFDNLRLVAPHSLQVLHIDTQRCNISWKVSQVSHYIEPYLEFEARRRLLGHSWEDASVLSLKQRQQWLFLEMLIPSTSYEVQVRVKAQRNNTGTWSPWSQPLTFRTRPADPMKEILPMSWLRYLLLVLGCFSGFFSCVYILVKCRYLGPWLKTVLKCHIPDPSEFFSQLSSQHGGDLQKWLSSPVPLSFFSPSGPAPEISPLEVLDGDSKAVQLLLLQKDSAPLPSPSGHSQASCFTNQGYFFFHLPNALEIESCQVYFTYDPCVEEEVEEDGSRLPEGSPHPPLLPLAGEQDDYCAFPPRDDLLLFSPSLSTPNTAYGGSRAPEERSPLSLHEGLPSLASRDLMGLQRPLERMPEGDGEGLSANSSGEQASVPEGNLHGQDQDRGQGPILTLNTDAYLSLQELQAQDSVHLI
T1 sequence (looked up) 3: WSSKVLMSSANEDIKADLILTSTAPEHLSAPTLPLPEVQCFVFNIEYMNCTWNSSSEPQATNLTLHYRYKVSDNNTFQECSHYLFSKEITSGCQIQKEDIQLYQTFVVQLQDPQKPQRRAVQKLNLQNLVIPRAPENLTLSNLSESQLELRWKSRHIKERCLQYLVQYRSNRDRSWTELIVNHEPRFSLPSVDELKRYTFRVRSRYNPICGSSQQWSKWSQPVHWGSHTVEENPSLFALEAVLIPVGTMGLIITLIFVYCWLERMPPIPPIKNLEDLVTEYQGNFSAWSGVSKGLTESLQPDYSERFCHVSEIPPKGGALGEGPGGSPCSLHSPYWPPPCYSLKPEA

[2] = biological target: T2, IL-2Rβ and IL-2Rγ on Ba/F3 cells engineered to express murine IL-2Rβ (murine, UniProt P16297 27-539; P34902 23-369); assay: cell-based or functional assay
T2 sequence (looked up) 1: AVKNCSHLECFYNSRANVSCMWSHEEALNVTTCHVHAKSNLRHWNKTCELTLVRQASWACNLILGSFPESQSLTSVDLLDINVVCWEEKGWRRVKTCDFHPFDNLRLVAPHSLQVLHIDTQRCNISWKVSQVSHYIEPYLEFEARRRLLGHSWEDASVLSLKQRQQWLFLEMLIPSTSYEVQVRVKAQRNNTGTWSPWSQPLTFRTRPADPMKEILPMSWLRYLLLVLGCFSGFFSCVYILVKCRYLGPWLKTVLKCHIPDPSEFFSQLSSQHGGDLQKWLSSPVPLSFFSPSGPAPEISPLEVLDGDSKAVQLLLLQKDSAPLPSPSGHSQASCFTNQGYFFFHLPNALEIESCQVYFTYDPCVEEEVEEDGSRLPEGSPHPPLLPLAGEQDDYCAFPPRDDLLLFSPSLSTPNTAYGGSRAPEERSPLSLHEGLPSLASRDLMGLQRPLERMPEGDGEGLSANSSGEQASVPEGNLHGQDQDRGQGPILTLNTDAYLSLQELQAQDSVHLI
T2 sequence (looked up) 2: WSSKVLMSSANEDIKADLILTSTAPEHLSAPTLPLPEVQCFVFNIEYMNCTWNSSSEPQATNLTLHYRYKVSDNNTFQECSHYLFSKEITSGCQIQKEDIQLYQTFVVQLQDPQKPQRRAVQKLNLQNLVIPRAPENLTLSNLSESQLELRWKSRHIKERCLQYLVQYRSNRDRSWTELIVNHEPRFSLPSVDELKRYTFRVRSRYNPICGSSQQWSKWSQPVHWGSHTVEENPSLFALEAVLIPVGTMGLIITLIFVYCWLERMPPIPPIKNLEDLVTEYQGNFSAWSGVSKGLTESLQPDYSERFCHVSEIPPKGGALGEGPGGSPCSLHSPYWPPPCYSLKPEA

B1: mouse surrogate Fc-IL-2v heterodimer 171.250 (IL2v_R52G_F56A_E76A_C140A) (Fc fusion)
chain 1: GPTIKPCPPCKCPAPNAAGGPSVFIFPPKIKDVLMISLSPIVTCVVVDVSEDDPDVQISWFVNNVEVHTAQTQTHREDYNSTLRVVSALPIQHQDWMSGKEFKCKVNNKDLGAPIERTISKPKGSVRAPQVYVLPPPEEEMTKKQVTLWCMVTDFMPEDIYVEWTNNGKTELNYKNTEPVLDSDGSYFMYSKLRVEKKNWVERNSYSCSVVHEGLHNHHTTKSFSRTPGGGGGSGGGGSGGGGSGGGGSQQQHLEQLLMDLQELLSRMENYRNLKLPGMLTAKFYLPKQATELKDLQCLEDALGPLRHVLDLTQSKSFQLEDAENFISNIRVTVVKLKGSDNTFECQFDDESATVVDFLRRWIAFAQSIISTSPQ
chain 2: GPTIKPCPPCKCPAPNAAGGPSVFIFPPKIKDVLMISLSPIVTCVVVDVSEDDPDVQISWFVNNVEVHTAQTQTHREDYNSTLRVVSALPIQHQDWMSGKEFKCKVNNKDLGAPIERTISKPKGSVRAPQVYVLPPPEEEMTKKQVTLSCAVTDFMPEDIYVEWTNNGKTELNYKNTEPVLDSDGSYFMVSKLRVEKKNWVERNSYSCSVVHEGLHNHHTTKSFSRTPGK
pSTAT5 EC50, STAT5 activation of CTLL-2 cells [1]: 88.7 nM
Proliferation EC50, Ba/F3 cells [2]: 13 nM

From patent US20240269235A1 (Gilead, published 2024)
